Measurements as given in the nanobody polyreactivity screen of Harvey et al. (2022).

Test: yeast display, Sf9 membrane polyspecificity reagent, FACS + sequencing; frameworks hold sequencing errors
Outline: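 Polyreactivity labels are assigned by the sorting gate from which each nanobody was recovered. The gates were low and high (top ~1%), set on anti-HA fluorescence for expression and streptavidin fluorescence for reagent binding. Before sorting, galactose-induced (36–48 hours) yeast display cells were stained for 1 hour at 4 °C with 10% biotinylated, detergent-solubilized Sf9 membrane reagent.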

| Sequence | polyreactivity (PSR sort gate) |
| --- | --- |
| QVQLVESGGGLVQAGGSLRLSSAASGFNSSRNAMGWYRQAPGKERELVATISSGGDTYYADSVKGRFTISRDNAKNTVYLQMNSLKPEDTAVYYCATDRAERTGYTRYVKTYNYWGQGTQVTVSS | low polyreactivity |
| QVQLVESGGGLVQAGGSLRLSSAASGFTFDCNTMGWYRQAPGKERELVALISSTGGRTYYADSVQGRFSISRDNAKNTVYLQMNSLKPEDTAGSYCNKRRRNPVGYDYWGLGTQVTVSS | high polyreactivity |
| QVQLVESGGGLVQAGGSLRLSSAASGFTFQGYVMGWYRQAPGKERELVAAISWSGGSTYYADSVKGRFTISRDTAKNTVYLQMNSLKPEDTAVYYCAAVTRFYTKYYWGQGTQVTVSS | high polyreactivity |
| QVQLVESGGGLVQAGGSLRLSSAASGFTFRAYAMGWYRQAPGKERELVAGISTRGGRTYYADSVKGRFTISRDNAKNTVYLQMNSLKPEDTAVYYCNAVDKTGKYDYWGQGPQVTVSS | high polyreactivity |
| QVQLVESGGGLVQAGGSLRLSSAASGFTFRYYAMGWYRQAPGKERELVAAISWSGGRTYYADSVKGRFTISRDNAKYTVYLQMNILKPEDTAVYYCAADGYPYFYGDFDYSGQGTQVTVSS | high polyreactivity |
| QVQLVESGGGLVQAGGSLRLSSAASGFTFSAYAMGWYRQAPGKEREMVATITSGGSTNYADSVKGRFTISRDNAKNTVYLQMNSLIPEDTAVYYCAADVGWLYYYPKYYYWGQGTQVTVSW | low polyreactivity |
| QVQLVESGGGLVQAGGSLRLSSAASGFTLGYNAMGWYRQAPGKERELVAGITWSGGSTSYADSVKGRFTISRDNAKNTVYLQMNSLKPEDTAVYYCAKLRRYSGWLPWPYAYDYWGQGTQVTVSS | high polyreactivity |
| QVQLVESGGGLVQAGGSLRLSSAASGGIFFIYVMGWYRQAPGKERELVAAISWSGGDTYYADSVQGRFTISRDNAKNTVYVQMNSLKPEDTAVYYCAARYYYLGTRYGYWGQGTQVTVSS | low polyreactivity |
| QVQLVESGGGLVQAGGSLRLSSAASGGIFRYYAMGLYRQAPGKERELVAAITSSGTSTYYADSVKGRFTISRDYAKNTVYLQMNSLKPEDTAVYYCARVVRPTDGDYWGLGTQVTVSS | high polyreactivity |
| QVQLVESGGGLVQAGGSLRLSSAASGGILPIYAMGWYRQAPGKERELVATITGSGGGTYADSVKGRFTISRDNAKNTVYLQMNSLKPEDTAVYYCNADLGPVGHIDGYSYYDYDYWGQGTQVTVSS | low polyreactivity |
| QVQLVESGGGLVQAGGSLRLSSAASGIIFDYNAMGWYRQAPGKERELVAAISYSGDSTYYADSVKGRFTISRDNAKNTVYLQMNSLKPEDTAVYYCAAVIYFGWWYVYTEDDYWGQGTQVTVSS | high polyreactivity |
| QVQLVESGGGLVQAGGSLRLSSAASGIIFFFYAMGWYRQAPGKERELVAVITGSGDSTFYADSVKGRFTISRDNAKNTVYLQMNSLKPEDTAVYYCNARQVSGGYYYWGQGTQVTVSS | low polyreactivity |
| QVQLVESGGGLVQAGGSLRLSSAASGIIFTYYAMGWYRQAPGKERELVAAISSGGGSTYYADSVKGRFTISRDNAKNTVYLQMNSLKPEDTAVYYCNADYYFVYTYLHDYWGQGTQVTVSS | low polyreactivity |
| QVQLVESGGGLVQAGGSLRLSSAASGITFIRYAMGWYSQAPGKERELVAAISSGGSTNYADSVKGRFTISRDNAKNTVYLQMNSLKPEDTAVYYCAARYYWSFAYDYWGQGTQVTVSS | low polyreactivity |
| QVQLVESGGGLVQAGGSLRLSSAASGITLTANAMGCYRQAPGKERELVAAISRGGSTYYADSVKGRFTISRDNAKNTVYLQMNSLKPEDTAVYYCNKAGGYWYAKRDYDYWGQCTQVTVSS | high polyreactivity |
| QVQLVESGGGLVQAGGSLRLSSAASGLIFWFYAMGWYRQAPGKERELVAAIDTDGGSTYYADSVKGRFTISRDNAKNTVYLQMNSLKPEDTAVYYCAATFAAYTQQTFYYWGQGTQVTVSS | low polyreactivity |
